# Reference: the supplement of paper PMC7877785
# ± gives the uncertainty stated by the source.
# Assay: self-splicing fitness, log relative to wild type (ln ratio); higher = more splicing; Tetrahymena group I intron in knt gene, E. coli kanamycin selection, DiMSum; sequences stand for … in CUCUCU…GGAGGGAAAAGUUAUCAGGCAUGCACCUGGUAGCUAGUCUUUAAACCAAUAGAUUGCAUCGGUUUAAAAGGCAAGACCGUCAAAUUGCGGGAAAGGGGUCAACAGCCGUUCAGUACCAAGUCUCAGGGGAAACUUUGAGAUGGCCUUGCAAAGGGUAUGGUAAUAAGCUGACGGACAUGGUCCUAACCACGCAGCCAAGUCCUAAGUCAACAGAUCUUCUGUUGAUAUGGAUGCAGUUCACAGACUAAAUGUCGGUCGGGGAAGAUGUAUUCUUCUCAUAAGAUAUAGUCGGACCUCUCCUUAAUGGGAGCUAGCGGAUGAAGUGAUGCAACACUGGAGCCGCUGGGAACUAAUUUGUAUGCGAAAGUAUAUUGAUUAGUUUUGGAGUACUCGUGGUCG
# Summary of the method: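 DiMSum derived fitness as the error-weighted combination of fold changes across replicates, kanamycin versus no kanamycin, normalised to wild type. E. coli BL21(DE3) held the library, which randomised all eight P1ex-region intron nucleotides within the knt kanamycin-resistance gene on pET-22b(+). Six replicate transformations grew overnight at 37°C or 30°C on LB agar with or without 25 μg/mL kanamycin, also containing 100 μg/mL carbenicillin, 50 μM IPTG and 0.2% rhamnose, and pooled colonies were amplicon-sequenced on an Illumina HiSeq 2500.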
Sequence,self-splicing fitness (ln) (30 °C),self-splicing fitness (ln) (37 °C)
UUGGAGCAAUAUUACGUGUG,-3.71 ± 0.2,-2.38 ± 0.14
UUGGAGCAAUAUUACGUUAA,-2.09 ± 0.25,-1.91 ± 0.25
UUGGAGCAAUAUUACGUUCA,-2.45 ± 0.4,-1 ± 0.31
UUGGAGCAAUAUUACGUUGA,-3.57 ± 0.3,-0.895 ± 0.26
UUGGAGCAAUAUUACGUUGC,–,-1.44 ± 0.45
UUGUAGCAAUAUUACGACCA,-0.463 ± 0.16,-0.51 ± 0.17
UUGUAGCAAUAUUACGAGGC,-3.07 ± 0.27,-1.77 ± 0.31
UUGUAGCAAUAUUACGAGUU,-3.22 ± 0.25,-2.61 ± 0.26
UUGUAGCAAUAUUACGCCCA,0.762 ± 0.34,-0.0943 ± 0.38
UUGUAGCAAUAUUACGCGUA,-1.31 ± 0.18,-0.742 ± 0.22
UUGUAGCAAUAUUACGCGUG,-0.196 ± 0.079,-0.498 ± 0.1
UUGUAGCAAUAUUACGGAUU,–,-2 ± 0.34
UUGUAGCAAUAUUACGGCAU,-0.835 ± 0.096,0.641 ± 0.11
UUGUAGCAAUAUUACGGCCA,-0.782 ± 0.2,0.581 ± 0.28
UUGUAGCAAUAUUACGGCUU,-1.41 ± 0.12,0.113 ± 0.14
UUGUAGCAAUAUUACGGGAC,-0.759 ± 0.16,-2.7 ± 0.36
UUGUAGCAAUAUUACGGGGC,-3.56 ± 0.37,-3.67 ± 0.46
UUGUAGCAAUAUUACGUCCA,-0.4 ± 0.13,-0.28 ± 0.14
UUGUAGCAAUAUUACGUUCU,-2.42 ± 0.15,-1.69 ± 0.2
UUGUAGCAAUAUUACGUUGG,-2.77 ± 0.18,-1.98 ± 0.21
UUUAAGCAAUAUUACGAAAU,-2.95 ± 0.24,-1.04 ± 0.19

Sequence,self-splicing fitness (ln) (30 °C),self-splicing fitness (ln) (37 °C)
UUUAAGCAAUAUUACGAACG,-1.08 ± 0.18,0.0714 ± 0.21
UUUAAGCAAUAUUACGAAGU,–,-1.62 ± 0.45
UUUAAGCAAUAUUACGAAUA,-1.09 ± 0.21,-0.334 ± 0.22
UUUAAGCAAUAUUACGACAU,-1.45 ± 0.015,-0.621 ± 0.034
UUUAAGCAAUAUUACGACGC,-3.48 ± 0.2,-0.476 ± 0.16
UUUAAGCAAUAUUACGAGGG,-2.32 ± 0.19,-1.57 ± 0.23
UUUAAGCAAUAUUACGCACG,-0.565 ± 0.16,-0.685 ± 0.22
UUUAAGCAAUAUUACGCAUU,-2.05 ± 0.17,-2.63 ± 0.24
UUUAAGCAAUAUUACGCUCG,-0.577 ± 0.095,0.0454 ± 0.11
UUUAAGCAAUAUUACGGGCA,-1.05 ± 0.12,-0.851 ± 0.14
UUUAAGCAAUAUUACGGGUG,-1.2 ± 0.13,-0.234 ± 0.12
UUUAAGCAAUAUUACGGUAA,-1.08 ± 0.12,-1.01 ± 0.096
UUUAAGCAAUAUUACGGUAG,-0.741 ± 0.17,-0.971 ± 0.21
UUUAAGCAAUAUUACGGUUA,-1.35 ± 0.12,-0.505 ± 0.1
UUUAAGCAAUAUUACGUAAA,-0.434 ± 0.1,0.519 ± 0.16
UUUAAGCAAUAUUACGUCGA,-0.771 ± 0.092,-0.225 ± 0.1
UUUAAGCAAUAUUACGUCUA,-0.606 ± 0.085,-0.214 ± 0.1
UUUAAGCAAUAUUACGUGCC,-1.95 ± 0.21,-0.891 ± 0.22
UUUAAGCAAUAUUACGUUAU,-3.18 ± 0.2,-2.16 ± 0.22
UUUAAGCAAUAUUACGUUUG,-2.96 ± 0.19,-1.42 ± 0.13
UUUCAGCAAUAUUACGAAUA,-0.788 ± 0.15,0.446 ± 0.13

Sequence,self-splicing fitness (ln) (30 °C),self-splicing fitness (ln) (37 °C)
UUUCAGCAAUAUUACGACAG,-0.245 ± 0.089,0.886 ± 0.15
UUUCAGCAAUAUUACGACGC,-2.68 ± 0.24,-1.67 ± 0.19
UUUCAGCAAUAUUACGAUUC,–,-1.37 ± 0.41
UUUCAGCAAUAUUACGCAAU,-2.36 ± 0.21,-0.692 ± 0.23
UUUCAGCAAUAUUACGCCAG,-1.4 ± 0.31,-0.498 ± 0.24
UUUCAGCAAUAUUACGCCGG,-0.905 ± 0.17,-1.68 ± 0.25
UUUCAGCAAUAUUACGCCUA,-0.129 ± 0.066,0.414 ± 0.078
UUUCAGCAAUAUUACGGCGC,-1.11 ± 0.11,-1.58 ± 0.16
UUUCAGCAAUAUUACGGUCC,-2.8 ± 0.37,-0.245 ± 0.35
UUUCAGCAAUAUUACGUACA,-0.836 ± 0.11,-0.465 ± 0.11
UUUCAGCAAUAUUACGUAUG,-0.689 ± 0.081,-0.635 ± 0.11
UUUCAGCAAUAUUACGUUUC,–,-2.28 ± 0.29
UUUGAGCAAUAUUACGAAAA,-2.31 ± 0.28,-1.21 ± 0.24
UUUGAGCAAUAUUACGACGA,-0.573 ± 0.15,0.211 ± 0.18
UUUGAGCAAUAUUACGACUA,-1.98 ± 0.27,-1.32 ± 0.28
UUUGAGCAAUAUUACGAGAA,–,-2.17 ± 0.46
UUUGAGCAAUAUUACGAGCA,–,-1.53 ± 0.43
UUUGAGCAAUAUUACGAUAU,–,-0.926 ± 0.24
UUUGAGCAAUAUUACGCAGC,-3.5 ± 0.28,-2.43 ± 0.21
UUUGAGCAAUAUUACGCCUA,-0.79 ± 0.45,–
UUUGAGCAAUAUUACGCGCA,–,-1.65 ± 0.48

Sequence,self-splicing fitness (ln) (30 °C),self-splicing fitness (ln) (37 °C)
UUUGAGCAAUAUUACGCUAC,–,-1.45 ± 0.3
UUUGAGCAAUAUUACGCUAG,-2.68 ± 0.37,-1.33 ± 0.23
UUUGAGCAAUAUUACGCUGA,-2.58 ± 0.34,–
UUUGAGCAAUAUUACGGCGG,-1.04 ± 0.24,-1.57 ± 0.28
UUUGAGCAAUAUUACGGGGC,–,-2.07 ± 0.45
UUUGAGCAAUAUUACGGGUU,-3.23 ± 0.34,-2.91 ± 0.48
UUUGAGCAAUAUUACGGUAU,-4.23 ± 0.36,-2.73 ± 0.38
UUUGAGCAAUAUUACGUAUC,-4 ± 0.29,-2.45 ± 0.23
UUUGAGCAAUAUUACGUCAU,-3.88 ± 0.34,-1.64 ± 0.21
UUUGAGCAAUAUUACGUCUA,-1.05 ± 0.2,-1.06 ± 0.21
UUUGAGCAAUAUUACGUGCU,-3.64 ± 0.16,-2.84 ± 0.2
UUUGAGCAAUAUUACGUUAA,-2.96 ± 0.29,-1.57 ± 0.22
UUUUAGCAAUAUUACGAAGG,–,-1.85 ± 0.41
UUUUAGCAAUAUUACGAAUC,–,-1.38 ± 0.4
UUUUAGCAAUAUUACGACAU,-2.164 ± 0.021,-1.09 ± 0.036
UUUUAGCAAUAUUACGAUCA,-0.641 ± 0.15,-0.391 ± 0.17
UUUUAGCAAUAUUACGCCAA,-2.27 ± 0.35,0.0505 ± 0.22
UUUUAGCAAUAUUACGCCCA,-0.313 ± 0.22,0.00602 ± 0.28
